Laboratory results published in US20160060356A1 (Hoffmann-La Roche, published 2016).

Legend:
[1] = target: T1, human Fibroblast Activation Protein (FAP) on cells or in tissue (human, UniProt Q12884 1-760); experiment: FACS on HEK293 cells stably transfected with human FAP
T1 construct: whole, on cells; Expressed on stably transfected HEK293 cells, on the human fibroblast cell line GM05389, on human tumor cell lines and in human tumor tissue sections; also called human FAP; hFAP

[2] = target: T2, human Fibroblast Activation Protein (FAP) ectodomain with C-terminal poly-lysine and 6xHis-tag (human, UniProt Q12884 27-760); experiment: SPR (Biacore T100), His-tagged FAP captured by anti-His antibody, IgG as analyte (avidity)
T2 construct: Recombinant soluble antigen used in selections, ELISA and SPR; also called hu FAP; human FAP
Procedure: (§1) For immobilization carboxymethylated dextran biosensor chips (CMS, GE Healthcare) were activated with N-ethyl-N′-(3-dimethylaminopropyl)-carbodiimide hydrochloride (EDC) and N-hydroxysuccinimide (NHS) according to the supplier's instructions. The Penta His antibody was diluted with 10 mM sodium acetate, pH 5, to 40 μg/ml before injection at a flow rate of 10 μl/minute to achieve approximately 9000 response units (RU) of coupled protein. Following the injection of the ligand, 1 M ethanolamine was injected to block unreacted groups.
(§2) For kinetics measurements, human, mouse or Cynomolgus FAP extracellular domain was injected at 10 μl/min at 10 nM for 20 s (for Fab fragments) or at 20 nM for 25 s (for IgG) and was captured via its His tag by the immobilized penta His antibody. […] The following parameters were applied: Association time 180 s, dissociation 300 s (for Fab) or 900 s (for IgG), regeneration with 10 mM glycine pH 2 for 60 s between each cycle. Association rates (kₒₙ) and dissociation rates (koff) were calculated using a simple one-to-one Langmuir binding model (BIACORE® T100 Evaluation Software version 1.1.1) by simultaneously fitting the association and dissociation sensorgrams (model parameters were local Rmax and RI=0). The equilibrium dissociation constant (KD) was calculated as the ratio koff/kₒₙ.

[3] = target: T3, Cynomolgus Fibroblast Activation Protein (FAP) ectodomain with C-terminal poly-lysine and 6xHis-tag (cynomolgus monkey, UniProt Q12884 27-760 (human entry)); experiment: as above
T3 construct: also called cyno FAP; Cynomolgus FAP extracellular domain
Procedure: as §1, §2

[4] = target: T4, murine Fibroblast Activation Protein (FAP) ectodomain with C-terminal poly-lysine and 6xHis-tag (mouse, UniProt P97321 27-761); experiment: as above
T4 construct: also called mu FAP; murine FAP
Procedure: as §1, §2

[5] = target: T5, DPPIV (CD26) on stably transfected HEK293 cells (UniProt P27487 1-766); experiment: FACS on HEK293 cells stably expressing DPPIV, PE goat anti-human IgG Fc gamma detection
T5 construct: whole, on cells; also called dipeptidyl peptidase IV

[6] = target: T6, HER2 on stably transfected HEK293 cells (UniProt P04626 23-1255, limits assumed); experiment: FACS on HEK293 cells stably expressing HER2, PE goat anti-human IgG Fc gamma detection
T6 construct: whole, on cells

[7] = target: T7, murine Fibroblast Activation Protein (FAP) on stably transfected HEK293 cells (mouse, UniProt P97321 1-761); experiment: FACS on HEK293 cells stably transfected with murine FAP
T7 construct: whole, on cells; also called murine FAP

[8] = target: T2, human Fibroblast Activation Protein …; experiment: SPR (Biacore T100), His-tagged FAP captured by anti-His antibody, Fab as analyte
Procedure: as §1, §2

[9] = target: T3, Cynomolgus Fibroblast Activation …; experiment: as above
Procedure: as §1, §2

[10] = target: T4, murine Fibroblast Activation Protein …; experiment: as above
Procedure: as §1, §2

Binder | EC50 [1] [nM] | Kd [2] [nM] | Kd [3] [nM] | Kd [4] [nM] | binding result [5] | binding result [6] | EC50 [7] [nM] | Kd [8] [nM] | Kd [9] [nM] | Kd [10] [nM]
4G8 human IgG1 antibody (antibody, V domains shown, Wild-type and glycoengineered versions were used in the ADCC assay; also called IgG 4G8; 4G8 IgG) VH: not shown VL: EIVLTQSPGTLSLSPGERATLSCRASQSVSRSYLAWYQQKPGQAPRLLIIGASTRATGIPDRFSGSGSGTDFTLTISRLEPEDFAVYYCQQGQVIPPTFGQGTKVEIK | 5 | 0.051 | 0.059 | 0.001 | no binding (tested: 30 µg/ml) | no binding (tested: 30 µg/ml) | 1.7 | – | – | –
3F2 human IgG1 antibody (antibody, V domains shown, Wild-type and glycoengineered versions were used in the ADCC assay; also called IgG 3F2; 3F2 IgG) VH: not shown VL: EIVLTQSPGTLSLSPGERATLSCRASQSVTSSYLAWYQQKPGQAPRLLINVGSRRATGIPDRFSGSGSGTDFTLTISRLEPEDFAVYYCQQGIMLPPTFGQGTKVEIK | 4.8 | 0.039 | 0.042 | 0.029 | no binding (tested: 30 µg/ml) | no binding (tested: 30 µg/ml) | 1 | – | – | –
3F2 Fab fragment (Fab, V domains shown, also called Fab fragment 3F2; clone 3F2) VH: not shown VL: EIVLTQSPGTLSLSPGERATLSCRASQSVTSSYLAWYQQKPGQAPRLLINVGSRRATGIPDRFSGSGSGTDFTLTISRLEPEDFAVYYCQQGIMLPPTFGQGTKVEIK | – | – | – | – | – | – | – | 13 | 11 | 14
4B3 human IgG1 antibody (antibody, V domains shown, Human IgG1 format; also called 4B3 IgG) VH: not shown VL: EIVLTQSPGTLSLSPGERATLSCRASQSVSSNYLAWYQQKPGQAPRLLIYGAYIRATGIPDRFSGSGSGTDFTLTISRLEPEDFAVYYCQQGQVIPPTFGQGTKVEIK | 5.5 | – | – | – | no binding (tested: 30 µg/ml) | no binding (tested: 30 µg/ml) | 1.6 | – | – | –
4G8 Fab fragment (Fab, V domains shown, also called Fab fragment 4G8; clone 4G8) VH: not shown VL: EIVLTQSPGTLSLSPGERATLSCRASQSVSRSYLAWYQQKPGQAPRLLIIGASTRATGIPDRFSGSGSGTDFTLTISRLEPEDFAVYYCQQGQVIPPTFGQGTKVEIK | – | – | – | – | – | – | – | 74 | 56 | ≤ 7
